# Where no end group is shown, it is not given here.
# Target: T1, human L3MBTL1 R467C mutant containing 3 MBT repeats (residues 200-522, 3MBT) (human)
# T1 construct: also called L3MBTL1 Arg467Cys mutant; source: expressed and purified as previously described [20]
# Experiment: ITC; L3MBTL1 R467C mutant titrated with H4K20me2; data not shown
# Conditions: both partners purified
binder,measurement,value
RHRK(dimethyl)VLRDN [H4K20me2 peptide (used for co-crystallisation and ITC with L3MBTL1 R467C)],stoichiometry N,1

# Reference: paper PMC2747274, “Structural Studies of a Four-MBT Repeat Protein MBTD1” (PLoS ONE, 2009)
